Data published in PMC9453709 (2022).

Tests used:
[1] = biological target: SARS-CoV-2 wild-type receptor-binding domain (WT-RBD) (SARS-CoV-2, UniProt P0DTC2 319-541); assay: ELISA
[2] = biological target: SARS-CoV-2 wild-type spike S1 subunit (WT-S1) (SARS-CoV-2); assay: ELISA

| Binder | EC50 [1] | EC50 [2] |
| --- | --- | --- |
| F61, recombinant human immunoglobulin G1 (IgG1) (antibody, V domains shown) VH: EVQLVESGGGLVQPGGSLRLSCEASEIIVNRNYMNWVRQAPGKGLEWVSIIYPGGSTFYADSVKGRFTISRDNSKNTMYLQMNSLRAEDTAVYYCARSYGDFYVDFWGQGTLVTVSS VL: QSVLTQPPSVSAAPGQKVTISCSGSSSNIGNNYVSWYQQLPGTAPKLLIYDNNKRPSGIPDRFSGSKSGTSATLGITGLQTGDEADYYCGTWDSSLSAWVFGGGTKLTVL | 3.01 ng/mL | 3.12 ng/mL |
| D2, recombinant human immunoglobulin G1 (IgG1) (antibody, V domains shown) VH: EVQLVESGGGLVQPGRSLTLSCGASGFTFEDYAMHWVRQAPGKGLEWVSGIDWNSGVIGYADSVKGRFIISRDNAKNSLYLHMRSLTAEDTALYYCAKDVYSESGSGSYYDYWGQGTLVTVSS VL: QSVLTQPPSVSAAPGQKVAISCSGSTSNIGDNFVSWYQQFPGTAPKLLLYDDARRPSGIPDRFSGSKSGTSATLGITGLQTGDEAVYFCSTWDNSLNVVLFGGGTKLTVL | 4.41 ng/mL | 3.53 ng/mL |
